Laboratory results from US20210069338A1 (published 2021).
Positions count from the first letter of the chain named.

B1: anti-TfR1 antibody (high affinity bivalent anti-TfR antibody, parent antibody without hapten-binding scFvs) (antibody, human IgG1, kappa, V domains shown)
VH: EVQLQQSGPELVKPGASMKISCKASGYSFTGYTMNWVKQSHGENLEWIGRINPHNGGTDYNQKFKDKAPLTVDKSSNTAYMELLSLTSEDSAVYYCARGYYYYSLDYWGQGTSVTVSS
VL: QIVLTQSPAIMSASPGEKVTMTCSASSSIRYIHWYQQRPGTSPKRWIYDTSNLASGVPARFSGSGSGTSYSLTISSMEAEDAATYYCHQRNSYPWTFGGGTRLEIKR
notes: also called antibody TfR1
B2: TfR1-Bio bispecific antibody (biotinylated payload binding blood brain barrier-shuttle module that binds TfR with high affinity) (bispecific antibody, human IgG1, kappa)
light: QIVLTQSPAIMSASPGEKVTMTCSASSSIRYIHWYQQRPGTSPKRWIYDTSNLASGVPARFSGSGSGTSYSLTISSMEAEDAATYYCHQRNSYPWTFGGGTRLEIKRTVAAPSVFIFPPSDEQLKSGTASVVCLLNNFYPREAKVQWKVDNALQSGNSQESVTEQDSKDSTYSLSSTLTLSKADYEKHKVYACEVTHQGLSSPVTKSFNRGEC
heavy: not shown
notes: also called anti-TfR1 antibody-Bio
B3: anti-TfR2 antibody (bivalent anti-TfR antibody with reduced affinity, parent antibody without hapten-binding scFvs) (antibody, human IgG1, kappa, V domains shown)
VH: EVQLQQSGPELVKPGASVKMSCKASGYTFTSYVMHWVKQKPGQGLEWIGYVNPYNDDTKYNEKFRGKATLTSDKSSSTAYMELSSLTSEDSAVYYCARSYYYYSMDNWGQGTSVTVSS
VL: B1 VL with M21V, I32M, R38K, N52E, S75N, N91S, W95F, R102K
notes: also called antibody TfR2
B4: TfR2-Bio bispecific antibody (biotinylated payload binding blood brain barrier-shuttle module that binds TfR with reduced affinity) (bispecific antibody, human IgG1, kappa)
light: B2 light with M21V, I32M, R38K, N52E, S75N, N91S, W95F, R102K
heavy: not shown
notes: also called anti-TfR2-Bio
B5: TfR1-Dig bispecific antibody (digoxigenylated payload binding blood brain barrier-shuttle module that binds TfR with high affinity) (bispecific antibody, human IgG1, kappa)
light: B2 light
heavy: not shown
notes: also called anti-TfR1 antibody-Dig
B6: TfR2-Dig bispecific antibody (digoxigenylated payload binding blood brain barrier-shuttle module that binds TfR with reduced affinity) (bispecific antibody, human IgG1, kappa)
light: B2 light with M21V, I32M, R38K, N52E, S75N, N91S, W95F, R102K
heavy: not shown
notes: also called anti-TfR2-antibody Dig

The binders below were run against T1, human transferrin receptor (TfR) on hCMEC/D3 brain endothelial cells (human, UniProt P02786 1-760) (assay: hCMEC/D3 transwell assay, IgG ELISA of cell lysates and media).
T1 construct: whole, on cells; also called blood brain barrier receptor
T1 sequence (P02786 whole entry): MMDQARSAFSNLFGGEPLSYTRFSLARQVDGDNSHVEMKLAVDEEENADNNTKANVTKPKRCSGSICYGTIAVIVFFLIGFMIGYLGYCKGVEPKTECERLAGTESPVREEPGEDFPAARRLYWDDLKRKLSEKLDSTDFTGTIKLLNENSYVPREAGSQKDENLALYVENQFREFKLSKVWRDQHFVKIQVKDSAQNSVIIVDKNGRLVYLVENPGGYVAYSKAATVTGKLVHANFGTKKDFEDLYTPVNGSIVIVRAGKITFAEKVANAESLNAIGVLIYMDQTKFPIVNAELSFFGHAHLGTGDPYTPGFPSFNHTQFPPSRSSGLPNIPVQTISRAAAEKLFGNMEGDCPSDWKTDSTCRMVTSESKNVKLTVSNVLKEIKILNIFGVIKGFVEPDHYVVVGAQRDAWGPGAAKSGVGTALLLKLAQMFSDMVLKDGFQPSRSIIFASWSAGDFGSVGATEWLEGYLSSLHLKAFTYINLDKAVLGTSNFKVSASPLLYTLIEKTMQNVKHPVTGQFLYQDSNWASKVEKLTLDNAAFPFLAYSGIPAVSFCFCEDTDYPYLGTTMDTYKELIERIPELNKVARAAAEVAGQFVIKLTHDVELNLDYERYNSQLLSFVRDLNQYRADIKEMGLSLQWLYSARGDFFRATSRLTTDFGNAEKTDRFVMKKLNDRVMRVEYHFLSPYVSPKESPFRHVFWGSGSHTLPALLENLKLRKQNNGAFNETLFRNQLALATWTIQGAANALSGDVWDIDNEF
Experimental: We used brain endothelial cells (hCMEC/D3) to investigate cell binding and transcytosis of the shuttle modules as reported herein. […] To investigate cell binding and transcytosis in hCMEC/D3, hCMEC/D3 cells cultured on filter inserts were incubated apically with the bispecific antibody or parent antibody (without hapten-binding scFvs as controls) for 1 h at 37° C. Cell monolayers were washed at RT in serum-free medium apically (400 μl) and basolaterally (1600 μl) three times for 3-5 min. each. All wash volumes were collected to monitor efficiency of removal of the unbound ligand or antibody. Pre-warmed medium was added to the apical chamber and the filters transferred to a fresh 12 well plate (blocked overnight with PBS containing 1% BSA) containing 1600 μl pre-warmed medium. At this point, cells on some of the filters were lysed in 500 μl RIPA buffer (Sigma, Munich, Germany, #R0278) in order to determine specific uptakes. The remaining filters were incubated at 37° C., and samples of cells and of basolateral and apical media were collected at various time points to determine apical and/or basolateral release. The content of antibody in the samples was quantified using a highly sensitive IgG ELISA.

Binder	binding result
B1	binds
B2	binds
B3	binds
B4	binds

The binders below were run against T1, human transferrin receptor (TfR) on … (assay: FACS on hCMEC/D3 cells, anti-IgG-PE detection, Dig-Cy5 as payload).
Text: To evaluate this functionality of the hapten-binding bispecific antibodies as reported herein, simultaneous cell surface and payload binding was addressed by FACS analyses. For these analyses, cell binding of the blood brain barrier-shuttle module (=bispecific antibody) was detected by phytoerythrin-labeled IgG recognizing secondary antibodies. Simultaneous payload binding was detected by application of a haptenylated fluorescent payload (digoxigenylated Cy5; DIG-Cy5 (see above)).

Binder	binding result
B5	binds
B6	binds
